Results on 40 sequences are retold here after the nanobody polyreactivity screen of Harvey et al. (2022).

This series can be described thus: yeast display, Sf9 membrane polyspecificity reagent, FACS + sequencing; frameworks hold sequencing errors. In outline:
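A nanobody's polyreactivity label depends on the gate it was sorted from. Yeast display cells were stained with 10% biotinylated, detergent-solubilized Sf9 membrane reagent for 1 hour at 4 °C, enriched on streptavidin microbeads and sorted by FACS. The low and high (top ~1%) gates were set on anti-HA fluorescence for expression and streptavidin fluorescence for reagent binding.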
Regarding “QVQRVESGGGLVQAGGSLRLSCAASGRNSQFYDMGWYRQAPGKERELVATISGGASTNYADSVKGRFTISRDNAKNTVYLQMNSLKPEDTAVYYCARAGRSWDTLYKYYLEHDYWGQGTQVTVSS”, the “polyreactivity (PSR sort gate)” value is recorded as “low polyreactivity”. As for “QVQRVESGGGLVQAGGSLRLSCAASGRTFFGYAMGWYRQAPGKERELVAAITSGGSTNYADSVKGRFTISRDNAKNTVYLQMNSLKPEDTAVYYCAASEDGSVSYESTYPEYDYWGQGTQVTVSS”, the entry is “low polyreactivity”.

With “QVQRVESGGGLVQAGGSLRLSCAASGRTFNHYAMGWYRAAPGKERELVAAISRSGGTTYYADSVKGRFTISRENAKNTVYLQMNSLKPEDTAVYYCAARWWYRYNYDFWGQGTQVTVSS”, the “polyreactivity (PSR sort gate)” value is “high polyreactivity”.

“QVQRVESGGGLVQAGGSLRLSCAASGRTFYPNAMGWSRQAPGKERELVADITYSGASTYYADSVKGRFTISRDNAKNTVYLQMNSMKPEDTAVYYCAKVYGQMVSGGYVTRYDFWGQGTQVTVSS”: the “polyreactivity (PSR sort gate)” value was “low polyreactivity”. Take “QVQRVESGGGLVQAGGSLRLSCAASGRTLARNAMGWYRQAPGKERELVASINGRTTRTYYADSVKGRFTISRDNAKNTVYLQMNSLKPEDTAVYYCAVKDRYSFRYDYWGQGTQVTVSS”: the “polyreactivity (PSR sort gate)” value is reported as “high polyreactivity”. As for “QVQRVESGGGLVQAGGSLRLSCAASGSIFEPYAMGCYRQAPGKESELVATAITYSGGSTYYADSVKGRFTISRDNAKNTVYLQMNSLKPEDTAVYYCAADDLGDGVYKLDYWGLGTQVTVSS”, the entry is “low polyreactivity”; as for “QVQRVESGGGLVQAGGSLRLSCAASGSIFGYYAMGWSRQAPVKERELVAAITRSCGSTYYADSVKGRFTISRDNAKTTVYLQMNSLKPEDTAVYYCNAVRYAVRLPAFPGYDYLGQGTQVTVSS”, “high polyreactivity”; as for “QVQRVESGGGLVQAGGSLRLSCAASGSTFGIYDMGWYRQSPGKEMELVARITYSGGSRYYADSVKGRFTISRDNAKNTVYLQMNSLKPEDTAVYYCAARSWPHYFRYDYWGQGTQVTVSS”, “high polyreactivity”.

For “QVQRVESGGGLVQAGGSLRLSCAASGSTFTWNVMGWYRQAPGKERELVASITSGDSTYADSVKGRFTISRDNAKNTVYLQMNSLKPEDTAVYYCNVGYDQEKYGYWGQGTQVTVSS”, the “polyreactivity (PSR sort gate)” value is “low polyreactivity”. As for “QVQRVESGGGLVQAGGSLRLSCAASGSTFYRYAMVWYRQAPGKERELVATISGGGRTNYADSVKGRFTISRDNAKNTVYLQMNSLKPEDTAVYYCAVDSSSPYDYWGQGTQVTVSS”, the entry is “high polyreactivity”; as for “QVQRVESGGGLVQAGGSLRLSCAASGSTLRKYVMGWYRQAPGKERELVAAISSSGGRTYYADSVKGRFTISRDNAKYTVYLQMNSLKPEDTAVYYCAATRYIPGFYYWGQGTQVTVSS”, “high polyreactivity”. As for “QVQRVESGGGLVQAGGSLRLSCAASGYTFLRYAKGSYRQAPGKERELVAAISRRGGRTYYADSVKGRFTISRDNAKNTVYLQMNSLKPEDTAVYYCAAVNSTQTIGLMDYWGQGTQVTVSS”, the entry is “high polyreactivity”; as for “QVQRVESGGGLVQAGGSLRLSCAATGLIFSPYAMGWYRQAPGKEREFVAGITWRGGNTYYADSVKGRFTISRDNAKNTVYLQMNSLNPEDTAVYYCAAYERKFYTVSRWYKLDYWGQGTQVTVSS”, “high polyreactivity”. “QVQRVESGGGLVQAGGSLRLSCADSGTYGSYAMGWYRQAPGTEREFVAAISASGGSTYYADSVKGRFTISRDNAKNTVYLQMNSLKPEDTAVYYCNKSPRRNRQYDYWGQGSQVTVSS”: the “polyreactivity (PSR sort gate)” value was “high polyreactivity”. As for “QVQRVESGGGLVQAGGSLRLSCSASGFIFQLSAMGWYRQAPGTERELVAAITWRGGSTYYADSVKGRFTISRDNAKNTVYLQMYSLKPEDTAVYYCAASASWRGQRVPYGYWGQGTQVTVSS”, the “polyreactivity (PSR sort gate)” value is on record as “high polyreactivity”. Then “QVQRVESGGGLVQAGGSLRLSFAASGSTDGRYARGWYSQAPVQDTELVAAITRNGGRTYYADSVKGCFTISRDNAKNTVYLQMNSLKPEHTADEYCAASGRSQYGDYDDWGQGSQVTVSS”, with “high polyreactivity”; and “QVQRVESGGGLVQAGGSVRLSCPASGSIFWSYAMGWYRQAPGKERELVAVINWSGGSTYYADSVKGRFTISRDNAKNTVYLQMNSLNPEDTAVYYCNKDLGPTKRPFTFDYSGQGTQVTVSS”, with “low polyreactivity”. As for “QVQRVESGGRLVQAGGSLRLSCAASGRTFWAYAMGWYRQAPGKERELVAAITTSGGSTNYADSVKGRFTISRDNAKNTVYLQMNSLKPEDTAVDYCNADPTYHVVNGVGYWGQGTQVTVSS”, the entry is “low polyreactivity”; as for “QVQRVESRGGLVQAGGSLRLTCAASGRTFWRYVMGWYRQAPGKERELVATISSGGSTNYAYSVKGRFTISRDNAKNTVYLQMNSLKPEDTAVYYSAAYIYDGVWVYPYYPYDYWGQGTQVTVSS”, “low polyreactivity”.

Consider “QVQSEESGGGLVQAGGSLRLSCAASGLIFDGYSMGWNRQAPGKERELVAAITRSGASTSYADSVKGRFTISRDNAKNTVYLQMNSLKPDDTAVYYCAAKVHTFYYHYYSWGQGTQVTVSS”, for which the “polyreactivity (PSR sort gate)” value is recorded as “high polyreactivity”. As for “QVQVVESGGGLVKAGGSLRLSCAASGGTFLINAMGWYRQAPGKERELVATITSGGTTYYADSVKGRFTISRDNAKNTVYLQMNSLKPEDTAVYYCATRGKGRYGYDSWGQGTQVTVSS”, the entry is “low polyreactivity”; as for “QVQVVESGGGLVKAGGSLRLSCAASGIIFVYYAMGWSRQAPGKERELVAAITSDGGRTYYADSVKGRFTISRDNAKNTVYLQMNSLKPEDTAVYYWAARTLYRGIKGYNYWGQGTQVTVSS”, “high polyreactivity”; as for “QVQVVESGGGLVQAGGSLGLSCAASGRTFGSNAMGWYRQAPGKERELVAAISSTVSTNYADSVKGRFTISSDNANNTVYLQMNSLKPEDTAVYFCNVTRHYSYVSEYDYWGQGTQVTVSS”, “low polyreactivity”. As for “QVQVVESGGGLVQAGGSLRLRCAASGSIIKYYAMGWYREAPGKERELVADISWRGGRTYADSVKGRFTISRDNAKNTVYLQMNCLIPEDTAVYYCAKPSKARGGYDYWGQGTQVTVSS”, the entry is “high polyreactivity”. As for “QVQVVESGGGLVQAGGSLRLSCAASGFTFDYYNMGWYRQAPGKERELVAAITSGASTNYADSVKGRFTISRDNAKNTVYLQMNSLKPEDTAVYYCAAVLAGGVYWVVHYDYWGQGTQVSVSS”, the entry is “low polyreactivity”; as for “QVQVVESGGGLVQAGGSLRLSCAASGFTFSFNAMGSYRQAPWKERELVAAIDRGVSTYYADSVKGRFTISRDNAKNTVYLQMKSLKPEDTAVSYCAVEYWEPYDMDYWGQGTQVTVSS”, “high polyreactivity”; as for “QVQVVESGGGLVQAGGSLRLSCAASGGTFSPYDMGWYRQAPGKERELVASITRSGGSTYYADSVKGRFTISRGNSKNTVYLQMNSLKPEDTAVYYCAAQGYWTYWPYLLRLYDYWGQGTQVTVSS”, “low polyreactivity”. For “QVQVVESGGGLVQAGGSLRLSCAASGITFWGYAMGWYRQAPGKERELVAAITRTGSTYYADSVKGRFTISRDNAKNTVYLQMNSLKPEDTALYYCAAYTPNASTYRRKSSKKVYYWGQGTQVTVSS”, the “polyreactivity (PSR sort gate)” value is on record as “high polyreactivity”.

In the case of “QVQVVESGGGLVQAGGSLRLSCAASGRTFFRNAMGWYRQARGKERELVAAISKRGGSTRYADSVKGRFTISRDQAQNPDYLQMNSLKPEDTAVYYCAAASRLEYSHATLYYWGQGTQVTVSS”, the “polyreactivity (PSR sort gate)” value is recorded as “high polyreactivity”. Regarding “QVQVVESGGGLVQAGGSLRLSCAASGRTFGGYDMGWYRQAPGKERELVAAISWSGGNTYYADSVKGRFTISRDNAKNTVYLQMNSLKPEDTAVYYCAAGHYVYWYRYQLGRYNYWGQGTQVTVSS”, the “polyreactivity (PSR sort gate)” value is on record as “high polyreactivity”. As for “QVQVVESGGGLVQAGGSLRLSCAASGRTFYGNAMGWYRQAPGKERELVASITSRGDNTYYADSVKGRFTISRDNAKNTVYFQMNSLKPEDTAVYYCAAGTVYYTYLWMGYWGQGTQVTVSS”, the entry is “low polyreactivity”; as for “QVQVVESGGGLVQAGGSLRLSCAASGRTSGNYAMGWYRQAPGKERELVAAIRYSGSSTFYADSVKGRFTISRDNAKHTVYLQMNSLKPEDTAVYYCARDIRRKGFRYDYWGQGTQVTVSS”, “high polyreactivity”. As for “QVQVVESGGGLVQAGGSLRLSCAASGSIFGANTMGWYRPAPGKERELVAAISSGGNTYYADSVKGRFTISRDNAKNTVYLQMNSLKPEDTAVYYCNAQTRYLYQYGYLGGTGYNYWGQGTQVTVSS”, the entry is “low polyreactivity”; as for “QVQVVESGGGLVQAGGSLRLSCAASGSIFSSYAMGWYRQAPGKERELVAAITGSGGSTDYADSVKGRFTISRDNAKNTVYLQMNSLKPEDTAVYYCAARRFWPGNSYYYRYYYWGQGTQVTVSS”, “low polyreactivity”; as for “QVQVVESGGGLVQAGGSLRLSCAASGSIFVGYAMGWYRQAPGKEREFVAGITARGGSTYYADSVKGRFTISCDNAKNTVYIPMNSQKPEDSAVYYCAADDGSENDYWGQGTQVTVSS”, “low polyreactivity”. As for “QVQVVESGGGLVQAGGSLRLSCAASGSTFPGNAMGWYRQAPGKERDLVAAITSTGTTYYADSVKGRFTISRDNAKNTVYLQMNSLKPEDTAVYYWNADPSPDPSTFDYWGQGTLVTVSS”, the entry is “low polyreactivity”; as for “QVQVVESGGGLVQAGGSLRLSCAASGSTFRYYAMGWYRQAAGKERELVASITVSVGRTYYADSVKGRFTISRDYAKNTVYLQMNILKPEDTAVYYCAAPRGRLVRPPKYYYWGQGTQLTVSS”, “high polyreactivity”; as for “QVQVVESGGGLVQAGGSLRLSCAASGSTFTIYAMGWYRQAPGKERELVALITWSGGSTYYADSVKGRFTISRDNAKNTVYLQMNSLKPEDTAVYYCAADYYRPVPGGYYWGQGTQVTVSS”, “high polyreactivity”. With “QVQVVESGGGLVQAGGSLRLSCAASGSTFYSNAMGWYSQAAGQERELVAAITWSDGSTYYADSVMGRFTISRDNAKHTVYVQMNSHKPEDTALYYCSATQAEVVWTPVYVEYDYWGQGTQVTVSS”, the “polyreactivity (PSR sort gate)” value is given as “high polyreactivity”. With “QVQVVESGGGLVQAGGSLRLSCAPSGRTFYGNVMGWYRQAPGKERELVAAISSRGSSTRYADSVKGRFTISRDNAKNTVYLQMNRLKPEDTAVYYCAARNEYWGQGTQVTVSS”, the “polyreactivity (PSR sort gate)” value is listed as “high polyreactivity”.
